The values below come from patent US20030049831A1 (published 2003).

Test [1] deals with T1, human C5b-6 complexes (human, UniProt P01031 752-1676; P01031 19-673; P13671 22-934).
T1 construct: Complex of C5b and C6
Description: ELISA, Factor H coated at 50 to 0.4 pmol/well, C5b-6 detected with anti-C6 K1.115. On the procedure: (§1) Binding of C3b, C5b-6 and HSA to recombinant FHR-5 (panel A) or Factor H (panel B) was determined by ELISA.
(§2) Recombinant FHR-5 or Factor H (Sigma) were serially diluted 1:2 in 0.1 M carbonate buffer, pH 9.3. Duplicate wells in microtitre plates were incubated with dilutions of FHR-5 or Factor H from 50 pmol/well to 0.4 pmol/well. The plates were blocked and wells incubated with human C3b, C5b-6 or HSA at 10 μg/well. C3b was detected by incubation with polyclonal rabbit anti-C3 antibody (1:1000 dilution) followed by peroxidase-conjugated swine anti-rabbit antibody (1:2000 dilution). C5b-6 and HSA were detected using K1.115 (anti-C6) and anti-HSA monoclonal antibodies, respectively, (1:500 dilution) followed by peroxidase-conjugated rabbit anti-mouse antibody (1:2000 dilution). The ELISAs were developed with O-phenylenediamine dihydrochloride. The reaction was stopped with 4M H₂SO₄ and the optical density of the solution was measured at a wavelength of 492 nm using a Behring EL31 microplate reader.
For orientation: An ELISA detects its analyte on a solid surface through an enzyme-linked reagent.

For test [2], the target named is T1, human C5b-6 complexes. Description: ELISA, rFHR-5 coated at 50 to 0.4 pmol/well, C5b-6 detected with anti-C6 K1.115. The method, then: as §1, §2
In test [3] the target is human C3b (human, UniProt P01024 749-1663; P01024 23-667). Description: ELISA, rFHR-5 coated at 50 to 0.4 pmol/well, C3b at 10 µg/well, detected with polyclonal anti-C3. On the procedure: as §1, §2
In test [4] the target is human serum albumin (HSA) (human, UniProt P02768 25-609). Description: ELISA, rFHR-5 coated at 50 to 0.4 pmol/well, HSA detected with anti-HSA monoclonal antibody. On the procedure:
as §1, §2

T1 sequence (P01031 752-1676 limits assumed, chain 1 of 3): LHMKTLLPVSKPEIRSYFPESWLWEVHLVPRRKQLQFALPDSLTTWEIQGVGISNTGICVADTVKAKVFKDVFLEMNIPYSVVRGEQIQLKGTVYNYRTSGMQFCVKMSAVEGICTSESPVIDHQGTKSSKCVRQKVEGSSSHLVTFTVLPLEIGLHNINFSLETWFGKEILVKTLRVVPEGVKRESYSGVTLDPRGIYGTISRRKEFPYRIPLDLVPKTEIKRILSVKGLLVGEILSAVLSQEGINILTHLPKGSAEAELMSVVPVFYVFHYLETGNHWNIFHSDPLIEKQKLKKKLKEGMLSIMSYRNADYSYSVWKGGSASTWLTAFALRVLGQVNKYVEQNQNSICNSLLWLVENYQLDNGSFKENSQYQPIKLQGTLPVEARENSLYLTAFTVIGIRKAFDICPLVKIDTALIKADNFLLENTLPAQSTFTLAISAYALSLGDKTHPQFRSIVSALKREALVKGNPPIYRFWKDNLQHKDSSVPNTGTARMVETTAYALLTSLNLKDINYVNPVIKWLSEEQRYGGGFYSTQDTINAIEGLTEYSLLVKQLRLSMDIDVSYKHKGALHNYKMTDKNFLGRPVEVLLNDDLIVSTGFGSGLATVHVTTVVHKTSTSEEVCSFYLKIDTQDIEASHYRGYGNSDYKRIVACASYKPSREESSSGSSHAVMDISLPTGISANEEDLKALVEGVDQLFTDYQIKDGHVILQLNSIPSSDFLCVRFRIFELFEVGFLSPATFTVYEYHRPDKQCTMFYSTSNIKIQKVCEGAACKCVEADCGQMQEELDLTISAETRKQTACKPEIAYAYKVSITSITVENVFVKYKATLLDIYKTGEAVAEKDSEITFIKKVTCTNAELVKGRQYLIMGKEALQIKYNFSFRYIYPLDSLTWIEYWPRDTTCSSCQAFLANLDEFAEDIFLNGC
T1 sequence (P01031 19-673 limits assumed, chain 2 of 3): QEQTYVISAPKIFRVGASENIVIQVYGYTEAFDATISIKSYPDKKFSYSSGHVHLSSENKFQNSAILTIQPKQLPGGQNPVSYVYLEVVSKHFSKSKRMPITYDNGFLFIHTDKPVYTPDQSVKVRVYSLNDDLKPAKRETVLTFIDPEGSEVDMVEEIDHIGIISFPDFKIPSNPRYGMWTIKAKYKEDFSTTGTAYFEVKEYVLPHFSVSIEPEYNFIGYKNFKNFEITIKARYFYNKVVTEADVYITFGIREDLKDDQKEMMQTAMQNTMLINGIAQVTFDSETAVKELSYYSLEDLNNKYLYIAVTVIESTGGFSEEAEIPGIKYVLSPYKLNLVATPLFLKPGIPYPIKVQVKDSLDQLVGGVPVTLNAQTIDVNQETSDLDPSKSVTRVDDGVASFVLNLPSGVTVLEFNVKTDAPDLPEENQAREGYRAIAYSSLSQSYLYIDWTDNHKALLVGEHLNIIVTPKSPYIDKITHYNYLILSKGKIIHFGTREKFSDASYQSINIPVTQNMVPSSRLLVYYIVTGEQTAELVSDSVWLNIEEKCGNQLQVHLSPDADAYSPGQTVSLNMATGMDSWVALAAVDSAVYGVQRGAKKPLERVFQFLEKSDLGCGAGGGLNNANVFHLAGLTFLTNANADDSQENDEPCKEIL
T1 sequence (P13671 22-934 limits assumed, chain 3 of 3): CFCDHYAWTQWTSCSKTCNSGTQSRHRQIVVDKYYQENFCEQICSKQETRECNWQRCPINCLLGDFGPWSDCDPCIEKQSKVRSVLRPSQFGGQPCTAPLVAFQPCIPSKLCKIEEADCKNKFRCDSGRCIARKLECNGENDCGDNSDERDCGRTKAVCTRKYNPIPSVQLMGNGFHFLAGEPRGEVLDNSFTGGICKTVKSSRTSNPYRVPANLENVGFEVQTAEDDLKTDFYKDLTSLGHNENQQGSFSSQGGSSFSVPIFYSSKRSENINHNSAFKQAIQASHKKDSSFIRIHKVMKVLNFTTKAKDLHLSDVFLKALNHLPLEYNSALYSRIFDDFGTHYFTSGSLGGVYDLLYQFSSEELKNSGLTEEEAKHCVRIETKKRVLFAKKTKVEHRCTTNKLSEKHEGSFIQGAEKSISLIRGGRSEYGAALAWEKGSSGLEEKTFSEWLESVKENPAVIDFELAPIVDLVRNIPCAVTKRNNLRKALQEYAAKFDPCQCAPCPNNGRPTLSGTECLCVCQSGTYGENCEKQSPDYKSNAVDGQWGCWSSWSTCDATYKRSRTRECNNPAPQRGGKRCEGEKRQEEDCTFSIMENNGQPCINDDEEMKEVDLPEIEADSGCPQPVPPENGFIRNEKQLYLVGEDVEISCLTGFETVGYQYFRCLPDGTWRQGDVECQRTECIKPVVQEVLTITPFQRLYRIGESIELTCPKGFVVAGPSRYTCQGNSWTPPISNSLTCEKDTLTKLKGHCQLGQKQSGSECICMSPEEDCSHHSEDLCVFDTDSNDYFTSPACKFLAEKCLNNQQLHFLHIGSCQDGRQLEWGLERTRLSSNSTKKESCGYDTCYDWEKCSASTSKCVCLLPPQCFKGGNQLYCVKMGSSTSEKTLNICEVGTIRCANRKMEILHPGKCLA
human serum albumin (HSA), sequence (P02768 25-609 limits assumed): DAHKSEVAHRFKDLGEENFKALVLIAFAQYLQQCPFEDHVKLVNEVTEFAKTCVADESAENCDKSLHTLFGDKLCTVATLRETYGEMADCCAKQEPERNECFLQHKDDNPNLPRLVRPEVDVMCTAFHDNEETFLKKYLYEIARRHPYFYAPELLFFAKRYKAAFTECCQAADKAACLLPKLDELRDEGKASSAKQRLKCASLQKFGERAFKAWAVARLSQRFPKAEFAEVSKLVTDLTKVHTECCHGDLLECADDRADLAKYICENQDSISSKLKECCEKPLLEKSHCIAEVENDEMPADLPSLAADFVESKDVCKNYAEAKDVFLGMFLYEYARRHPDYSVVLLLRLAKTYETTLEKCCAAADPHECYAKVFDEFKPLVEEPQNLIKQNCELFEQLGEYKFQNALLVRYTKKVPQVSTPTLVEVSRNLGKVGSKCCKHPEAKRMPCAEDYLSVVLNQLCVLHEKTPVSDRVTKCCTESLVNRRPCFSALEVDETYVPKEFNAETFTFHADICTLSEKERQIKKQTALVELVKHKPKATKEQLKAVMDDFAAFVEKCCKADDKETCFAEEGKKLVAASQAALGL
human C3b, sequence (P01024 749-1663 limits assumed, chain 1 of 2): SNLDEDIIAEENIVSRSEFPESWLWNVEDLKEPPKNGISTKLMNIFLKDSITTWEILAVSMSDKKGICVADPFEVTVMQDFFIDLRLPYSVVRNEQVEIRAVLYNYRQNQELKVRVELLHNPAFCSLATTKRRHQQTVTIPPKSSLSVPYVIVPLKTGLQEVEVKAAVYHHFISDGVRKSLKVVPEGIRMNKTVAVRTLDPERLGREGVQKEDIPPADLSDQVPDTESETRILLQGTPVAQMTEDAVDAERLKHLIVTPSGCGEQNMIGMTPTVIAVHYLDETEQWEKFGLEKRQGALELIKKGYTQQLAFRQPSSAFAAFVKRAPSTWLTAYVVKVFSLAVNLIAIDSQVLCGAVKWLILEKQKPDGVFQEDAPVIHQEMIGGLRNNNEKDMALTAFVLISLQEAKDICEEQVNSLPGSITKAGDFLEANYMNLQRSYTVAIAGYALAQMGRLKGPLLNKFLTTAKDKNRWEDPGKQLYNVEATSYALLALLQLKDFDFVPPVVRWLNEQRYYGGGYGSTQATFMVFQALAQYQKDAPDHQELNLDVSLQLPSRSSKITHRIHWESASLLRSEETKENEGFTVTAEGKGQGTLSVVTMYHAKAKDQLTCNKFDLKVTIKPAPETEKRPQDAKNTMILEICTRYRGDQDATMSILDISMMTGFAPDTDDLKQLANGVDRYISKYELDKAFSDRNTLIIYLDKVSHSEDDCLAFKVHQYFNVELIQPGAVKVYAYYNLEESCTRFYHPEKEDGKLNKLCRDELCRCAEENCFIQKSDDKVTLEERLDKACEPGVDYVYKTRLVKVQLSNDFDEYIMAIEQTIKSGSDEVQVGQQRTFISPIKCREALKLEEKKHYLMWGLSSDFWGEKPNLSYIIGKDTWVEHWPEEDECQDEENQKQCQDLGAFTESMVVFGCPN
human C3b, sequence (P01024 23-667 limits assumed, chain 2 of 2): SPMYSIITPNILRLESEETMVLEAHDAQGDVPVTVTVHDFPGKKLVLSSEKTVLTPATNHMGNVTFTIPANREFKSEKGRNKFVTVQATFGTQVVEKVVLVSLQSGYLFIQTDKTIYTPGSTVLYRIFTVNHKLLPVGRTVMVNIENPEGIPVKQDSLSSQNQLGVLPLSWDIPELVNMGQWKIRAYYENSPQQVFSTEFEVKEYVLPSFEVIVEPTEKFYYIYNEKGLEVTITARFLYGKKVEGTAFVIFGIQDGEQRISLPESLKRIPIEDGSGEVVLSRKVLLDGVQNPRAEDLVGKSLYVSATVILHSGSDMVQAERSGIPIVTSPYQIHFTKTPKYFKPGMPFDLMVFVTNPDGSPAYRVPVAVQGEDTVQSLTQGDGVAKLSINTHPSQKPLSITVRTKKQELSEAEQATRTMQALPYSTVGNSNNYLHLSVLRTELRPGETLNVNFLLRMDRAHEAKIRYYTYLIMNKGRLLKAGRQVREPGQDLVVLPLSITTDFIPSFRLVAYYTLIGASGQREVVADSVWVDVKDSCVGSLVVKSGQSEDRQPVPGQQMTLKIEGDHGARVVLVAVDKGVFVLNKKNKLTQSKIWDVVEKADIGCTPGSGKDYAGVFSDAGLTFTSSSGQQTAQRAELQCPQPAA

B1: Factor H (Sigma) (other, UniProt P08603 19-1231, looked up)
chain: EDCNELPPRRNTEILTGSWSDQTYPEGTQAIYKCRPGYRSLGNVIMVCRKGEWVALNPLRKCQKRPCGHPGDTPFGTFTLTGGNVFEYGVKAVYTCNEGYQLLGEINYRECDTDGWTNDIPICEVVKCLPVTAPENGKIVSSAMEPDREYHFGQAVRFVCNSGYKIEGDEEMHCSDDGFWSKEKPKCVEISCKSPDVINGSPISQKIIYKENERFQYKCNMGYEYSERGDAVCTESGWRPLPSCEEKSCDNPYIPNGDYSPLRIKHRTGDEITYQCRNGFYPATRGNTAKCTSTGWIPAPRCTLKPCDYPDIKHGGLYHENMRRPYFPVAVGKYYSYYCDEHFETPSGSYWDHIHCTQDGWSPAVPCLRKCYFPYLENGYNQNYGRKFVQGKSIDVACHPGYALPKAQTTVTCMENGWSPTPRCIRVKTCSKSSIDIENGFISESQYTYALKEKAKYQCKLGYVTADGETSGSITCGKDGWSAQPTCIKSCDIPVFMNARTKNDFTWFKLNDTLDYECHDGYESNTGSTTGSIVCGYNGWSDLPICYERECELPKIDVHLVPDRKKDQYKVGEVLKFSCKPGFTIVGPNSVQCYHFGLSPDLPICKEQVQSCGPPPELLNGNVKEKTKEEYGHSEVVEYYCNPRFLMKGPNKIQCVDGEWTTLPVCIVEESTCGDIPELEHGWAQLSSPPYYYGDSVEFNCSESFTMIGHRSITCIHGVWTQLPQCVAIDKLKKCKSSNLIILEEHLKNKKEFDHNSNIRYRCRGKEGWIHTVCINGRWDPEVNCSMAQIQLCPPPPQIPNSHNMTTTLNYRDGEKVSVLCQENYLIQEGEEITCKDGRWQSIPLCVEKIPCSQPPQIEHGTINSSRSSQESYAHGTKLSYTCEGGFRISEENETTCYMGKWSSPPQCEGLPCKSPPEISHGVVAHMSDSYQYGEEVTYKCFEGFGIDGPAIAKCLGEKWSHPPSCIKTDCLSLPSFENAIPMGEKKDVYKAGEQVTYTCATYYKMDGASNVTCINSRWTGRPTCRDTSCVNPPTVQNAYIVSRQMSKYPSGERVRYQCRSPYEMFGDEEVMCLNGNWTEPPQCKDSTGKCGPPPPIDNGDITSFPLSVYAPASSVEYQCQNLYQLEGNKRITCRNGQWSEPPKCLHPCVISREIMENYNIALRWTAKQKLYSRTGESVEFVCKRGYRLSSRSHTLRTTCWDGKLEYPTCAKR
notes: Bought protein; also called FH
On to B1, for which, in test [1], the binding result is given as “no binding (tested: 10 µg/well)”.

B2: recombinant FHR-5 (rFHR-5), polyhistidine-tagged, expressed in insect cells (other)
chain: EGTLCDFPKIHHGFLYDEEDYNPFSQVPTGEVFYYSCEYNFVSPSKSFWTRITCTEEGWSPTPKCLRMCSFPFVKNGHSESSGLIHLEGDTVQIICNTGYSLQNNEKNISCVERGWSTPPICSFTKGECHVPILEANVDAQPKKESYKVGDVLKFSCRKNLIRVGSDSVQCYQFGWSPNFPTCKGQVRSCGPPPQLSNGEVKEIRKEEYGHNEVVEYDCNPNFIINGPKKIQCVDGEWTTLPTCVEQVKTCGYIPELEYGYVQPSVPPYQHGVSVEVNCRNEYAMIGNNMITCINGIWTELPMCVATHQLKRCKIAGVNIKTLLKLSGKEFNHNSRIRYRCSDIFRYRHSVCINGKWNPEVDCTEKREQFCPPPPQIPNAQNMTTTVNYQDGEKVAVLCKENYLLPEAKEIVCKDGRWQSLPRCVESTAYCGPPPSINNGDTTSFPLSVYPPGSTVTYRCQSFYKLQGSVTVTCRNKQWSEPPRCLDPCVVSEENMNKNNIQLKWRNDGKLYAKTGDAVEFQCKFPHKAMISSPPFRAICQEGKFEYPICE
notes: Insert amplified from immediately downstream of the signal peptide-encoding region to the end of the ORF (mature FHR-5, 551 amino acids); also called His-tagged recombinant protein; not shown: 10-histidine tag coded by vector pFASTBAC1-His10+ (after a gp67 signal peptide)
On to B2, for which the binding result in test [2] is given as “no binding (tested: 10 µg/well)”; in test [3] it was “binds”; in test [4] it was “no binding (tested: 10 µg/well)”.
